Laboratory results taken from paper PMC8809517, “Cofactor-independent RNA editing by a synthetic S-type PPR protein”.

Legend:
Assay in all cases: high-throughput RNA pulldown from lysate on Ni-NTA beads; HRP: 50 mM Tris pH 8, 150 mM NaCl, 1 mM beta-mercaptoethanol, 50 ug/ml BSA, 3 ug/ml yeast RNA, 0.5% heparin; ITC and FP: Tris pH 8, 200 mM KCl, 5% glycerol; MST: 50 mM Tris pH 8, 200 mM NaCl, 1 mM DTT, BSA, heparin, 0.05% Tween 20
Conditions in all cases: tags: N-terminal His-eGFP
[1] = target: T1, GFP-9S library array, motif 4 ND N98L;D124S (synthetic construct, N98L;D124S)
T1 chain: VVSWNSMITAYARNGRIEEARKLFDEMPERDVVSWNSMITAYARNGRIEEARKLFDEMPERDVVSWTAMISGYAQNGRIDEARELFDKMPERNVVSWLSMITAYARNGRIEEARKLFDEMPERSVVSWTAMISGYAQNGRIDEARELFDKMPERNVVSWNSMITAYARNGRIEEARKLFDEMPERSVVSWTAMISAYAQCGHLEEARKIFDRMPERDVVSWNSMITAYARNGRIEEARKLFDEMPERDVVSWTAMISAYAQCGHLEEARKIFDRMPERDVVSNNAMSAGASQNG

[2] = target: T2, GFP-9S library array, motif 4 ND N98E;D124T (synthetic construct, N98E;D124T)
T2 chain: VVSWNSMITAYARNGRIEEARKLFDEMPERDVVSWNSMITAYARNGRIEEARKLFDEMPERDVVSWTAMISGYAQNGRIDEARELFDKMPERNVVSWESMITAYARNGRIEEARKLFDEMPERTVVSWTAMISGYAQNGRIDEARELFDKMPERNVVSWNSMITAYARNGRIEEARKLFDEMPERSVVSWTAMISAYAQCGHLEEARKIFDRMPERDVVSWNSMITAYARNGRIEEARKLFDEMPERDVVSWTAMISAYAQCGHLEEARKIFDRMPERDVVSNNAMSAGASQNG

[3] = target: T3, GFP-9S library array, motif 4 ND N98Y;D124C (synthetic construct, N98Y;D124C)
T3 chain: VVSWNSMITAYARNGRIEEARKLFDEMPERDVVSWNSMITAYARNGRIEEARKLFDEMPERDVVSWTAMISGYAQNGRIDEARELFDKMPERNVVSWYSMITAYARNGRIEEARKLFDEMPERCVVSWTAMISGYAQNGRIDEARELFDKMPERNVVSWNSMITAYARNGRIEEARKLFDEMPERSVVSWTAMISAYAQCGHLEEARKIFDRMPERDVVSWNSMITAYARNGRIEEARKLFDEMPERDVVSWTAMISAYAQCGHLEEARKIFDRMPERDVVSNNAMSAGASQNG

[4] = target: T4, GFP-9S library array, motif 4 ND N98F;D124W (synthetic construct, N98F;D124W)
T4 chain: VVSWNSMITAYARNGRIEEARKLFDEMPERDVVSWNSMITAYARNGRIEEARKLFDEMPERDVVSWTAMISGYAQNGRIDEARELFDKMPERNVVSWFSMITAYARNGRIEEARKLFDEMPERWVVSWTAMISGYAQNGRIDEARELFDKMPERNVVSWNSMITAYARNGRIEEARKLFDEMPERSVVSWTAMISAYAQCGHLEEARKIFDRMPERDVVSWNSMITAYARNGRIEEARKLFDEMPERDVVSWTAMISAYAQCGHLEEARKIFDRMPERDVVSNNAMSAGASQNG

[5] = target: T5, GFP-9S library array, motif 4 ND N98R;D124W (synthetic construct, N98R;D124W)
T5 chain: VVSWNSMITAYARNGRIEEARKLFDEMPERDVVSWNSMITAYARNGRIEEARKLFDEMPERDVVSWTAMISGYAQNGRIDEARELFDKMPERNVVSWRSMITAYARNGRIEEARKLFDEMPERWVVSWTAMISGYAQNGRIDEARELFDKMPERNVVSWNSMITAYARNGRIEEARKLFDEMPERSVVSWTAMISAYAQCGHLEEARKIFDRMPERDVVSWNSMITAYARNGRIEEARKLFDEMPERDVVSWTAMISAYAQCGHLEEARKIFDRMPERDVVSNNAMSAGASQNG

Q: With AUUACACGUGA (ssRNA) [Cy5-rpoA] as the binder, how does the Kd ([1]; label: 5' Cy5) read?
A: Its Kd is 139 nM.

Q: And the Kd ([2]; label: 5' Cy5)?
A: Its Kd is 130 nM.

Q: What about the Kd ([3]; label: 5' Cy5) of the same binder?
A: The Kd was 126 nM.

Q: What about the Kd ([4]; label: 5' Cy5) of the same binder?
A: The Kd was 99.3 nM.

Q: And the Kd ([5]; label: 5' Cy5)?
A: The Kd was 147 nM.

Q: How did the Kd ([1]; label: 5' Cy5) turn out when AUUAGACGUGA (ssRNA) [Cy5-rpoA-G] was run?
A: The Kd was 111 nM.

Q: What about the Kd ([2]; label: 5' Cy5) of the same binder?
A: The Kd was 123 nM.

Q: And the Kd ([3]; label: 5' Cy5)?
A: Its Kd is 115 nM.

Q: And the Kd ([4]; label: 5' Cy5)?
A: Its Kd is 72.2 nM.

Q: What about the Kd ([5]; label: 5' Cy5) of the same binder?
A: Its Kd is 88.7 nM.

Q: With AUUAAACGUGA (ssRNA) [IR-rpoA-A] as the binder, how does the Kd ([1]; label: 5' IRDye 800CW) read?
A: The Kd was 120 nM.

Q: And the Kd ([2]; label: 5' IRDye 800CW)?
A: The Kd was 339 nM.

Q: What about the Kd ([3]; label: 5' IRDye 800CW) of the same binder?
A: The Kd was 211 nM.

Q: What about the Kd ([4]; label: 5' IRDye 800CW) of the same binder?
A: The Kd was 236 nM.

Q: And the Kd ([5]; label: 5' IRDye 800CW)?
A: The Kd was 249 nM.

Q: How did the Kd ([1]; label: 5' IRDye 800CW) turn out when AUUAUACGUGA (ssRNA) [IR-rpoA-U] was run?
A: The Kd was 37.2 nM.

Q: What about the Kd ([2]; label: 5' IRDye 800CW) of the same binder?
A: Its Kd is 476 nM.

Q: What about the Kd ([3]; label: 5' IRDye 800CW) of the same binder?
A: The Kd was 271 nM.

Q: What about the Kd ([4]; label: 5' IRDye 800CW) of the same binder?
A: The Kd was 364 nM.

Q: And the Kd ([5]; label: 5' IRDye 800CW)?
A: Its Kd is 337 nM.
